# Source: EP3088890B1 (Chugai Seiyaku Kabushiki Kaisha, dated 2020)
# T1: GPC3 peptide 61-90 (SEQ ID NO: 4) (human)
# T1 construct: Synthetic 30-residue peptide of GPC3
# T1 peptide: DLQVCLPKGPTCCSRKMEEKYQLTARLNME
# T2: GPC3 peptide 341-370 (SEQ ID NO: 18) (human)
# T2 construct: Synthetic 30-residue peptide of GPC3
# T2 peptide: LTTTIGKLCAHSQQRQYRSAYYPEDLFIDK
# T3: GPC3 peptide 201-230 (SEQ ID NO: 11) (human)
# T3 construct: Synthetic 30-residue peptide of GPC3
# T3 peptide: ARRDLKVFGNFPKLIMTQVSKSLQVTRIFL
# T4: GPC3 peptide 241-270 (SEQ ID NO: 13) (human)
# T4 construct: Synthetic 30-residue peptide of GPC3
# T4 peptide: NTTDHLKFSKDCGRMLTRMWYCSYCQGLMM
# T5: GPC3 peptide 361-390 (SEQ ID NO: 19) (human)
# T5 construct: Synthetic 30-residue peptide of GPC3
# T5 peptide: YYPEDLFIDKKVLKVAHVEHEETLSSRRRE
# T6: GPC3 peptide 101-130 (SEQ ID NO: 6) (human)
# T6 construct: Synthetic 30-residue peptide of GPC3
# T6 peptide: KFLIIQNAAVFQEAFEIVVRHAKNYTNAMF
# T7: GPC3 peptide 381-410 (SEQ ID NO: 20) (human)
# T7 construct: Synthetic 30-residue peptide of GPC3
# T7 peptide: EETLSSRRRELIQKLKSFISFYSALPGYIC
# T8: GPC3 peptide 481-510 (SEQ ID NO: 25) (human)
# T8 construct: Synthetic 30-residue peptide of GPC3
# T8 peptide: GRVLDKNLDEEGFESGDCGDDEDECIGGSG
# T9: GPC3 peptide 521-550 (SEQ ID NO: 27) (human)
# T9 construct: Synthetic 30-residue peptide of GPC3
# T9 peptide: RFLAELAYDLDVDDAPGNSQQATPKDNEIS
# T10: GPC3 peptide 551-580 (SEQ ID NO: 29) (human)
# T10 construct: Synthetic 30-residue peptide of GPC3
# T10 peptide: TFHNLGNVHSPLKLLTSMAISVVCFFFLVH
# T11: GPC3 peptide 461-490 (SEQ ID NO: 24) (human)
# T11 construct: Synthetic 30-residue peptide of GPC3
# T11 peptide: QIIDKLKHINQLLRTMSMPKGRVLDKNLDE
# T12: GPC3 peptide 281-310 (SEQ ID NO: 15) (human)
# T12 construct: Synthetic 30-residue peptide of GPC3
# T12 peptide: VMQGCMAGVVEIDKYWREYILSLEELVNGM
# T13: GPC3 peptide 141-170 (SEQ ID NO: 8) (human)
# T13 construct: Synthetic 30-residue peptide of GPC3
# T13 peptide: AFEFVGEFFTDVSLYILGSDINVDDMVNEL
# T14: GPC3 peptide 181-210 (SEQ ID NO: 10) (human)
# T14 construct: Synthetic 30-residue peptide of GPC3
# T14 peptide: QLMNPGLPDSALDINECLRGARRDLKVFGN
# T15: GPC3 peptide 421-450 (SEQ ID NO: 22) (human)
# T15 construct: Synthetic 30-residue peptide of GPC3
# T15 peptide: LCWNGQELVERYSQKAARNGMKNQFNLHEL
# T16: GPC3 peptide 121-150 (SEQ ID NO: 7) (human)
# T16 construct: Synthetic 30-residue peptide of GPC3
# T16 peptide: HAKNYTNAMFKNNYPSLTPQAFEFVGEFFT
# T17: GPC3 peptide 261-290 (SEQ ID NO: 14) (human)
# T17 construct: Synthetic 30-residue peptide of GPC3
# T17 peptide: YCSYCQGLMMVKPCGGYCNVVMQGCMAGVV
# T18: GPC3 peptide 21-50 (SEQ ID NO: 2) (human)
# T18 construct: Synthetic 30-residue peptide of GPC3
# T18 peptide: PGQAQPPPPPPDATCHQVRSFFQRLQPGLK
# T19: GPC3 peptide 81-110 (SEQ ID NO: 5) (human)
# T19 construct: Synthetic 30-residue peptide of GPC3
# T19 peptide: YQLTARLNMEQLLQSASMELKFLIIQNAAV
# T20: GPC3 peptide 221-250 (SEQ ID NO: 12) (human)
# T20 construct: Synthetic 30-residue peptide of GPC3
# T20 peptide: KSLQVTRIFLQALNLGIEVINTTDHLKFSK
# T21: GPC3 peptide 441-470 (SEQ ID NO: 23) (human)
# T21 construct: Synthetic 30-residue peptide of GPC3
# T21 peptide: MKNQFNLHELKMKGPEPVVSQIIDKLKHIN
# T22: GPC3 peptide 501-530 (SEQ ID NO: 26) (human)
# T22 construct: Synthetic 30-residue peptide of GPC3
# T22 peptide: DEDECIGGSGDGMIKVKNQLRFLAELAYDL
# T23: GPC3 peptide 541-570 (SEQ ID NO: 28) (human)
# T23 construct: Synthetic 30-residue peptide of GPC3
# T23 peptide: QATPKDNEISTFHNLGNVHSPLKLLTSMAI
# T24: GPC3 peptide 161-190 (SEQ ID NO: 9) (human)
# T24 construct: Synthetic 30-residue peptide of GPC3
# T24 peptide: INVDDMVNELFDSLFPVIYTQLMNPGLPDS
# T25: GPC3 peptide 1-30 (SEQ ID NO: 1) (human)
# T25 construct: Synthetic 30-residue peptide of GPC3
# T25 peptide: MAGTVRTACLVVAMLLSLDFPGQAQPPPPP
# T26: GPC3 peptide 401-430 (SEQ ID NO: 21) (human)
# T26 construct: Synthetic 30-residue peptide of GPC3
# T26 peptide: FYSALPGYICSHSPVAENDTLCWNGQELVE
# T27: GPC3 peptide 41-70 (SEQ ID NO: 3) (human)
# T27 construct: Synthetic 30-residue peptide of GPC3
# T27 peptide: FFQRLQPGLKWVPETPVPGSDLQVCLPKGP
# T28: GPC3 peptide 301-330 (SEQ ID NO: 16) (human)
# T28 construct: Synthetic 30-residue peptide of GPC3
# T28 peptide: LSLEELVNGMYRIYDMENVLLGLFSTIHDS
# T29: GPC3 peptide 321-350 (SEQ ID NO: 17) (human)
# T29 construct: Synthetic 30-residue peptide of GPC3
# T29 peptide: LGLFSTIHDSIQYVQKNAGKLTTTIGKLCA
# B1: GT114 antibody (antibody, IgG1, V domains shown)
# VH: DVQLQESGPGLVKPSQSLSLTCTVTGYSITSDSAWNWIRQFPGNKLEWMAYIMYSGITSYNPSLKSRISITRDTAKNQFFLQLNSVTTEDSATYYCSRGYWYFDVWGAGTTVTVSS
# VL: QIVLTQSPAIMSASLGEEITLTCSASSSVSYMHWYQQKSGTSPKLLIYSTSILASGVPSRFSGSGSGTFYSLTISSVEAEDAADYYCLQWITYRTFGGGTKLEIKR
# Molecular target: T30, AW2, C-terminally His-tagged recombinant product of positions 1 to 196 of GPC3 (human, UniProt P51654 25-196)
# T30 construct: Expressed in CHO cells, cell pellets used in Western blot; The range is as printed and starts at position 1; also called AW2 (1-196); not shown: C-terminal His tag
# Assay: Western blot, pellets of CHO cells expressing the product
# T30 sequence (P51654 25-196): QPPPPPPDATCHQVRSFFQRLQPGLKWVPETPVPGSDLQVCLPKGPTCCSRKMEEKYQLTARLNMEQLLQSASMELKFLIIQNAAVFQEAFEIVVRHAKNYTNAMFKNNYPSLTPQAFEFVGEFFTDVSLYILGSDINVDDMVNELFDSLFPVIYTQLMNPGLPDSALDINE
row,binding result,Binder
1,no binding,B1

# Molecular target: T1, GPC3 peptide 61-90 (SEQ ID NO: 4)
# Assay: peptide ELISA, peptide on plate
row,binding result,Binder
1,no binding (tested: 2 µg/mL),B1

# Molecular target: T2, GPC3 peptide 341-370 (SEQ ID NO: 18)
# Assay: peptide ELISA, peptide on plate
row,binding result,Binder
1,no binding (tested: 2 µg/mL),B1

# Molecular target: T3, GPC3 peptide 201-230 (SEQ ID NO: 11)
# Assay: peptide ELISA, peptide on plate
row,binding result,Binder
1,no binding (tested: 2 µg/mL),B1

# Molecular target: T4, GPC3 peptide 241-270 (SEQ ID NO: 13)
# Assay: peptide ELISA, peptide on plate
row,binding result,Binder
1,no binding (tested: 2 µg/mL),B1

# Molecular target: T5, GPC3 peptide 361-390 (SEQ ID NO: 19)
# Assay: peptide ELISA, peptide on plate
row,binding result,Binder
1,no binding (tested: 2 µg/mL),B1

# Molecular target: T6, GPC3 peptide 101-130 (SEQ ID NO: 6)
# Assay: peptide ELISA, peptide on plate
row,binding result,Binder
1,no binding (tested: 2 µg/mL),B1

# Molecular target: T7, GPC3 peptide 381-410 (SEQ ID NO: 20)
# Assay: peptide ELISA, peptide on plate
row,binding result,Binder
1,no binding (tested: 2 µg/mL),B1

# Molecular target: T8, GPC3 peptide 481-510 (SEQ ID NO: 25)
# Assay: peptide ELISA, peptide on plate
row,binding result,Binder
1,no binding (tested: 2 µg/mL),B1

# Molecular target: T9, GPC3 peptide 521-550 (SEQ ID NO: 27)
# Assay: peptide ELISA, peptide on plate
row,binding result,Binder
1,no binding (tested: 2 µg/mL),B1

# Molecular target: T10, GPC3 peptide 551-580 (SEQ ID NO: 29)
# Assay: peptide ELISA, peptide on plate
row,binding result,Binder
1,no binding (tested: 2 µg/mL),B1

# Molecular target: T11, GPC3 peptide 461-490 (SEQ ID NO: 24)
# Assay: peptide ELISA, peptide on plate
row,binding result,Binder
1,no binding (tested: 2 µg/mL),B1

# Molecular target: T12, GPC3 peptide 281-310 (SEQ ID NO: 15)
# Assay: peptide ELISA, peptide on plate
row,binding result,Binder
1,no binding (tested: 2 µg/mL),B1

# Molecular target: T13, GPC3 peptide 141-170 (SEQ ID NO: 8)
# Assay: peptide ELISA, peptide on plate
row,binding result,Binder
1,no binding (tested: 2 µg/mL),B1

# Molecular target: T14, GPC3 peptide 181-210 (SEQ ID NO: 10)
# Assay: peptide ELISA, peptide on plate
row,binding result,Binder
1,no binding (tested: 2 µg/mL),B1

# Molecular target: T15, GPC3 peptide 421-450 (SEQ ID NO: 22)
# Assay: peptide ELISA, peptide on plate
row,binding result,Binder
1,no binding (tested: 2 µg/mL),B1

# Molecular target: T16, GPC3 peptide 121-150 (SEQ ID NO: 7)
# Assay: peptide ELISA, peptide on plate
row,binding result,Binder
1,no binding (tested: 2 µg/mL),B1

# Molecular target: T17, GPC3 peptide 261-290 (SEQ ID NO: 14)
# Assay: peptide ELISA, peptide on plate
row,binding result,Binder
1,no binding (tested: 2 µg/mL),B1

# Molecular target: T18, GPC3 peptide 21-50 (SEQ ID NO: 2)
# Assay: peptide ELISA, peptide on plate
row,binding result,Binder
1,no binding (tested: 2 µg/mL),B1

# Molecular target: T19, GPC3 peptide 81-110 (SEQ ID NO: 5)
# Assay: peptide ELISA, peptide on plate
row,binding result,Binder
1,no binding (tested: 2 µg/mL),B1

# Molecular target: T20, GPC3 peptide 221-250 (SEQ ID NO: 12)
# Assay: peptide ELISA, peptide on plate
row,binding result,Binder
1,no binding (tested: 2 µg/mL),B1

# Molecular target: T21, GPC3 peptide 441-470 (SEQ ID NO: 23)
# Assay: peptide ELISA, peptide on plate
row,binding result,Binder
1,no binding (tested: 2 µg/mL),B1

# Molecular target: T22, GPC3 peptide 501-530 (SEQ ID NO: 26)
# Assay: peptide ELISA, peptide on plate
row,binding result,Binder
1,no binding (tested: 2 µg/mL),B1

# Molecular target: T23, GPC3 peptide 541-570 (SEQ ID NO: 28)
# Assay: peptide ELISA, peptide on plate
row,binding result,Binder
1,no binding (tested: 2 µg/mL),B1

# Molecular target: T24, GPC3 peptide 161-190 (SEQ ID NO: 9)
# Assay: peptide ELISA, peptide on plate
row,binding result,Binder
1,no binding (tested: 2 µg/mL),B1

# Molecular target: T25, GPC3 peptide 1-30 (SEQ ID NO: 1)
# Assay: peptide ELISA, peptide on plate
row,binding result,Binder
1,no binding (tested: 2 µg/mL),B1

# Molecular target: T26, GPC3 peptide 401-430 (SEQ ID NO: 21)
# Assay: peptide ELISA, peptide on plate
row,binding result,Binder
1,no binding (tested: 2 µg/mL),B1

# Molecular target: T27, GPC3 peptide 41-70 (SEQ ID NO: 3)
# Assay: peptide ELISA, peptide on plate
row,binding result,Binder
1,no binding (tested: 2 µg/mL),B1

# Molecular target: T28, GPC3 peptide 301-330 (SEQ ID NO: 16)
# Assay: peptide ELISA, peptide on plate
row,binding result,Binder
1,no binding (tested: 2 µg/mL),B1

# Molecular target: T29, GPC3 peptide 321-350 (SEQ ID NO: 17)
# Assay: peptide ELISA, peptide on plate
row,binding result,Binder
1,no binding (tested: 2 µg/mL),B1
